Laboratory results reported in article PMC9935901 (Signal Transduction and Targeted Therapy, 2023).

Biological target: T1, GST-tagged full-length β-catenin (UniProt P35222 1-781)
T1 construct: β-catenin, full length; also called GST-β-catenin
T1 sequence (looked up): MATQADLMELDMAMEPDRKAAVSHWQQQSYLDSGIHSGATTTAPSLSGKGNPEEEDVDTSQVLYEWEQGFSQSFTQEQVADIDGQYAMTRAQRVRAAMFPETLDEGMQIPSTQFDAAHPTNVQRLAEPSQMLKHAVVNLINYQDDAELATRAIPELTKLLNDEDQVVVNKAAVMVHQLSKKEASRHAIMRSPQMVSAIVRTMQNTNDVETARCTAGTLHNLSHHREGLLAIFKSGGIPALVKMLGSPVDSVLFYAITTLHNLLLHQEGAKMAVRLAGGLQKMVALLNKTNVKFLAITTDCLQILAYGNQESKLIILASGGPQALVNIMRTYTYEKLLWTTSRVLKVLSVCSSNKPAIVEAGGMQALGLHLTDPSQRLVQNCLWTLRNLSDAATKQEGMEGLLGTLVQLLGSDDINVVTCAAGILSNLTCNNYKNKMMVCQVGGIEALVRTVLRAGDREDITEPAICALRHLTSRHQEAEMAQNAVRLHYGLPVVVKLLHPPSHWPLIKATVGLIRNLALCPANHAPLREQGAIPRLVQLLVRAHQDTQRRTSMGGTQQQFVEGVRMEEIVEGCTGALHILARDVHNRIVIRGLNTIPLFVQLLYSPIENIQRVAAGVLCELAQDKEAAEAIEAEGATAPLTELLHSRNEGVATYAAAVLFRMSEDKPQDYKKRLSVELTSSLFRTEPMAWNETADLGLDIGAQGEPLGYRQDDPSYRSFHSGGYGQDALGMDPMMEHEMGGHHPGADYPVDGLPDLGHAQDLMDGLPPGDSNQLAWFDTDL
Assay: pull-down; purified GST-tagged full-length β-catenin incubated with purified His-tagged FAM83A, pulled down by GST beads, western blotting
Conditions: both partners purified

binding result: binds
B1: His-tagged FAM83A (natural protein, UniProt Q86UY5 1-434, looked up)
chain: MSRSRHLGKIRKRLEDVKSQWVRPARADFSDNESARLATDALLDGGSEAYWRVLSQEGEVDFLSSVEAQYIQAQAREPPCPPDTLGGAEAGPKGLDSSSLQSGTYFPVASEGSEPALLHSWASAEKPYLKEKSSATVYFQTVKHNNIRDLVRRCITRTSQVLVILMDVFTDVEIFCDILEAANKRGVFVCVLLDQGGVKLFQEMCDKVQISDSHLKNISIRSVEGEIYCAKSGRKFAGQIREKFIISDWRFVLSGSYSFTWLCGHVHRNILSKFTGQAVELFDEEFRHLYASSKPVMGLKSPRLVAPVPPGAAPANGRLSSSSGSASDRTSSNPFSGRSAGSHPGTRSVSASSGPCSPAAPHPPPPPRFQPHQGPWGAPSPQAHLSPRPHDGPPAAVYSNLGAYRPTRLQLEQLGLVPRLTPTWRPFLQASPHF
notes: FAM83A; also called His-FAM83A
